Reference: patent US7026125, “Heterodimers of retinoid X receptors (RXRS) and other steroid hormone receptors” (Ligand Pharmaceuticals)

Columns and labels:
[1] = target: T1, TRαm2 (UniProt P10827-2 P10827-2:1-213, C-terminal deletion of 197 aa); assay: EMSA; several complexes; settings: label: 32P
T1 sequence: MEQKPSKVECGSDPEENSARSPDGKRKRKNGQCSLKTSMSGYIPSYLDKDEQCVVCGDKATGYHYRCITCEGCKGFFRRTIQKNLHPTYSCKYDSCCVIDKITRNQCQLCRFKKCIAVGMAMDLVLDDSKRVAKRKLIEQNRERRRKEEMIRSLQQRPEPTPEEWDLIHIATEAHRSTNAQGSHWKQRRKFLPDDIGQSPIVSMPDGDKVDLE
Protocol: (§1) In vitro translated receptor protein (1 to 5 μl depending on the translation efficiency) was incubated with the ^32P-labeled oligonucleotides in a 20-μl reaction mixture containing 10 mM hepes buffer, pH 7.9, 50 mM KCl, 1 mM DTT, 2.5 mM MgCl, 10% glycerol, and 1 μg of poly(dI-dC) at 25° C. for 20 minutes. In general, relative low receptor concentration was used to obtain the clear effect of heterodimer formation. The reaction mixture was then loaded on a 5% nondenaturing ployacrylamide gel containing 0.5×TBE (1×TBE=0.089 M Tris-borate, 0.089 M boric acid, and 0.002 M EDTA). To analyze the effect of RXRα or the nuclear proteins on receptor DNA binding activity, RXRα or the cell extracts were preincubated with receptor protein at room temperature for 10 minutes before performing the DNA binding assay. When antibody was used, 1 μl of the antiserum was incubated with the specific translation products at room temperature for 45 minutes before performing the experiments described above.

[2] = target: RARγ + RXRαm5 (UniProt P13631;P19793 P13631:1-454,P19793:198-462, RXRα N-terminal deletion of 198 aa including DNA binding domain); assay: EMSA; settings: label: 32P
Chain of RARγ + RXRαm5 (P19793 199-462, stated change not applied, chain 2 of 2, one chain of several): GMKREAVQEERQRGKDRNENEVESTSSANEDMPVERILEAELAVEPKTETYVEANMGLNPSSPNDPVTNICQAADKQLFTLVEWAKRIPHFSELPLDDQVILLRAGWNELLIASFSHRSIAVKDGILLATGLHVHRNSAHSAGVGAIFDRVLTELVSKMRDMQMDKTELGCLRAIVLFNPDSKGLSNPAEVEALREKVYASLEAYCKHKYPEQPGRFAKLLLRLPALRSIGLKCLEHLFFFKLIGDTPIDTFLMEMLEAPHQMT
Protocol: as §1

[3] = target: TRα/RXRαm3 (UniProt P10827-2;P19793 P10827-2:1-410,P19793:28-462, RXRα N-terminal deletion of 28 aa); assay: EMSA; settings: label: 32P
Chain of TRα/RXRαm3 (P19793 29-462, stated change not applied, one chain of several): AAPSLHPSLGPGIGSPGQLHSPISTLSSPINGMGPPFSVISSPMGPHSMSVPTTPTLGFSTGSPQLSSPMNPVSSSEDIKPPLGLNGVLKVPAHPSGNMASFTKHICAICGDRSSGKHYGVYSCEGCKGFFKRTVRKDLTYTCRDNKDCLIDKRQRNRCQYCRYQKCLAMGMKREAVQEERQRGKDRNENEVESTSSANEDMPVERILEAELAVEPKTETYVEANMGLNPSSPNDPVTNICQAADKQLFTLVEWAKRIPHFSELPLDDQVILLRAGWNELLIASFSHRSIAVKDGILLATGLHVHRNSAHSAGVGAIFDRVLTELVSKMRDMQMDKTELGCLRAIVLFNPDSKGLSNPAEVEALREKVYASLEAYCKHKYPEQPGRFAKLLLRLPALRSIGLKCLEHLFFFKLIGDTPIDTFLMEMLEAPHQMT
Protocol: as §1

[4] = target: Flag-RXRα/TRα heterodimer (UniProt P19793;P10827-2 P19793:1-462,P10827-2:1-410); assay: EMSA; strongly reduced by anti-Flag; settings: tags: N-terminal Flag on RXRα; label: 32P
Chain of Flag-RXRα/TRα heterodimer (P19793 whole entry, one chain of several): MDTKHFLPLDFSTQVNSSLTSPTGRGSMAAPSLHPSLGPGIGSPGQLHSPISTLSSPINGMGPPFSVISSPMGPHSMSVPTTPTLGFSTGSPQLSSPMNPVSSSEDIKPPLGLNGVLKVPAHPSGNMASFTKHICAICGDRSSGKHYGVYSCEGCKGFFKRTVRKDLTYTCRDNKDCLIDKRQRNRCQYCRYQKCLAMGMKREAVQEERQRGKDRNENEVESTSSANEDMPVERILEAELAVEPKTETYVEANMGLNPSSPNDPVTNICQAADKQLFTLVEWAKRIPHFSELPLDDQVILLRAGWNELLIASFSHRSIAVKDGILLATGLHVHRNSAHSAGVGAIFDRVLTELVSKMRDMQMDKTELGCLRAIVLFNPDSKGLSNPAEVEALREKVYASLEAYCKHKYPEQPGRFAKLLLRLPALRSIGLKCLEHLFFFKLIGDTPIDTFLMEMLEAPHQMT
Protocol: As a control, receptor mixtures were also incubated with preimmune serum (NI).
as §1

[5] = target: TRαm1/RXRα (UniProt P10827-2;P19793 P10827-2:1-402,P19793:1-462, TRα C-terminal deletion of 8 aa); assay: EMSA; interaction unaffected; settings: label: 32P
Chain of TRαm1/RXRα (P19793 whole entry, stated change not applied, one chain of several): as the sequence (P19793 whole entry, one chain of several) above
Protocol: as §1

[6] = target: T2, RARγ (UniProt P13631 P13631:1-454); assay: EMSA; no detectable complex under conditions used; settings: label: 32P
T2 sequence: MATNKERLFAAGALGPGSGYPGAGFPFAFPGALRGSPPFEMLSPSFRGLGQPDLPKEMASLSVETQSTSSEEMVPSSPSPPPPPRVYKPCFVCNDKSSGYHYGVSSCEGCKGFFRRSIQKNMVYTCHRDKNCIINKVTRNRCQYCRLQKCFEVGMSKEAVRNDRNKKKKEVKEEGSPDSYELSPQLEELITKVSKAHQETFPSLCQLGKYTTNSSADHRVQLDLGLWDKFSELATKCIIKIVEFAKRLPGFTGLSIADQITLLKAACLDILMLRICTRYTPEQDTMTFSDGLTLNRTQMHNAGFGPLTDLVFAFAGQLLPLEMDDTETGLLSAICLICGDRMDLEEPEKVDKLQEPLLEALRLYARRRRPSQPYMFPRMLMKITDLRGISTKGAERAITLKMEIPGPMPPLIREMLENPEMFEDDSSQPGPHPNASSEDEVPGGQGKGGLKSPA
Protocol: (§2) (a) In vitro synthesized TRα, TRβ, RARα, RARβ, RARγ and TRα2 receptor proteins were preincubated either with (+) or without (−) equal amount of in vitro synthesized RXRα protein at room temperature for 10 minutes. Following this preincubation, the reaction mixtures were incubated with ^32p-labelled palindromic TRE (for 1 sequence see FIG. 2a) and analyzed by gel retardation assay as described in Experimental Procedures. […] As a control, equal amounts of TRα and RARα proteins were also mixed and incubated with labelled TRE.
as §1

[7] = target: T3, RARα (Homo sapiens, UniProt P10276 P10276:1-462); assay: EMSA; no detectable complex under conditions used; settings: label: 32P
T3 sequence: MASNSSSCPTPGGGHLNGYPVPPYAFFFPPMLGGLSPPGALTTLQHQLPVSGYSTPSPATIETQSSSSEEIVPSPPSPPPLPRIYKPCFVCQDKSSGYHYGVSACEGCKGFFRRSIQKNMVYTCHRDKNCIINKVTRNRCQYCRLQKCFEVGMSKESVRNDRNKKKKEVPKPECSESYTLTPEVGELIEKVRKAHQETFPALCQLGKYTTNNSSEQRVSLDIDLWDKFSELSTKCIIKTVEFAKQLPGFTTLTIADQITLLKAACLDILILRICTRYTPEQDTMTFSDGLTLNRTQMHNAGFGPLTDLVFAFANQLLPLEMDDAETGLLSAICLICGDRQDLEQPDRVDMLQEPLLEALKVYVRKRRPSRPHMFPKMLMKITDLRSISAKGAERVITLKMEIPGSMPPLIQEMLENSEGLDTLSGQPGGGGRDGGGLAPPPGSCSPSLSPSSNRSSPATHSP
Protocol: as §2, §1

[8] = target: T4, RARβ (UniProt P10826-2 P10826-2:1-448); assay: EMSA; no detectable complex under conditions used; settings: label: 32P
T4 sequence: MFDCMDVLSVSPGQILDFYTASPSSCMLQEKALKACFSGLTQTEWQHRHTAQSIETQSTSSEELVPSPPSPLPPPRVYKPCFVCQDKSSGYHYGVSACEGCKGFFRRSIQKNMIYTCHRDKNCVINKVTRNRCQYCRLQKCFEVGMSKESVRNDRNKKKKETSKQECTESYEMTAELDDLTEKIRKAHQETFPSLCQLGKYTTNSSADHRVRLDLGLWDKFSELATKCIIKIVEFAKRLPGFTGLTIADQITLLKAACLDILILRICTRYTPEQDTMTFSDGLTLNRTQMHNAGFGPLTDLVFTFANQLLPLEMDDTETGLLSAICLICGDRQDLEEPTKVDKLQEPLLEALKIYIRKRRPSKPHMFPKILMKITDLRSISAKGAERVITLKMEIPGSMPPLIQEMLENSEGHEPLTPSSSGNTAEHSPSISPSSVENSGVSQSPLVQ
Protocol: as §2, §1

B1: palindromic TRE (dsDNA)
DNA 1: GATCTCAGGTCATGACCTGAGATC
DNA 2: GATCTCAGGTCATGACCTGAGATC
B1: binds [1]; no binding [2]; binds [3]. B1: binds [4]; binds [5]; no binding [6]. B1: no binding [7]; no binding [8].
